Source: article PMC11864179 (Science Advances, 2025)
Non-standard residues stand in square brackets, D forms with d. No end group written: not given here. *: point of attachment. Biotin = O=C1N[C@H]2[C@H](CS[C@H]2CCCCC(=O)*)N1; pS = N[C@@H](COP(=O)(O)O)C(=O)O

Target: T1, HTP-3–HIM-3 complex containing His6-tagged HTP-3 and wild-type HIM-3 (C. elegans, UniProt O01820 2-739; G5EBG0 1-291)
T1 sequence (looked up) 1: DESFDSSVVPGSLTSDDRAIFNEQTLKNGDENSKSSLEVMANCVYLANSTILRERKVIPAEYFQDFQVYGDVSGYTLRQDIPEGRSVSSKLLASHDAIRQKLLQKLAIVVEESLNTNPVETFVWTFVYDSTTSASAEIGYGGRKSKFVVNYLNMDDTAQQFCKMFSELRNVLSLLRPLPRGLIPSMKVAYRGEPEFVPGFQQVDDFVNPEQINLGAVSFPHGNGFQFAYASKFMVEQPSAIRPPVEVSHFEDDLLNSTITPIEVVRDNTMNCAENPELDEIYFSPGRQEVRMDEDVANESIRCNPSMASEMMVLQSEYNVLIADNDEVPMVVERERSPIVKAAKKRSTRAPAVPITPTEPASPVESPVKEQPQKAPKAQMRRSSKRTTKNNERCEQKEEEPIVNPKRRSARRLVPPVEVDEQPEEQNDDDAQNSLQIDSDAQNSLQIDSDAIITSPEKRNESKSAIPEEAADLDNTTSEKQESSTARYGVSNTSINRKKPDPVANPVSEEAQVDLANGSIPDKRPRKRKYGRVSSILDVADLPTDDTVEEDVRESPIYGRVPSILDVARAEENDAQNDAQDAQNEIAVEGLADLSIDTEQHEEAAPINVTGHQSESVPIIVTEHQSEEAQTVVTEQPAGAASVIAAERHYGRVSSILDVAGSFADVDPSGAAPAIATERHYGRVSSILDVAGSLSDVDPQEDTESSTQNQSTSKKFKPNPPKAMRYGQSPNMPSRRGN
T1 sequence (looked up) 2: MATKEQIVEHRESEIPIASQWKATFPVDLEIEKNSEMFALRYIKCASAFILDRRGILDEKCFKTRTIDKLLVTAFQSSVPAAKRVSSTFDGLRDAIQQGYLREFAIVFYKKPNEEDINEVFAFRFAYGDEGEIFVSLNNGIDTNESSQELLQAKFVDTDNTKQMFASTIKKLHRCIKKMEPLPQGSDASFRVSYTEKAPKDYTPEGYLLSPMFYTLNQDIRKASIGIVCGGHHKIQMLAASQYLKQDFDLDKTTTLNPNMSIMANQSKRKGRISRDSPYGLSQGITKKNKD
Assay: pull-down

binding result: binds
Binder: Biotin-DDDLNDEEGDADQ[pS]IWGSDD [SYP-5 peptide spanning residues 528 to 547, phosphorylated at S541]
